The values that follow come from patent US12679870 (US Dept. of Health and Human Services, dated 2026).

This test deals with T1, HMPV F v3BΔ12 (V84C/A249C, A140C/A147C, substitution of HMPV F positions 89-112 to GSGGSG) (human metapneumovirus, B2 strain …).
T1 construct: That entry starts at K20, has no tags, and differs from the v3-B backbone at positions 185 and 323; also called HMPV F v3B with the L0.1 F1/F2 linker
T1 chain: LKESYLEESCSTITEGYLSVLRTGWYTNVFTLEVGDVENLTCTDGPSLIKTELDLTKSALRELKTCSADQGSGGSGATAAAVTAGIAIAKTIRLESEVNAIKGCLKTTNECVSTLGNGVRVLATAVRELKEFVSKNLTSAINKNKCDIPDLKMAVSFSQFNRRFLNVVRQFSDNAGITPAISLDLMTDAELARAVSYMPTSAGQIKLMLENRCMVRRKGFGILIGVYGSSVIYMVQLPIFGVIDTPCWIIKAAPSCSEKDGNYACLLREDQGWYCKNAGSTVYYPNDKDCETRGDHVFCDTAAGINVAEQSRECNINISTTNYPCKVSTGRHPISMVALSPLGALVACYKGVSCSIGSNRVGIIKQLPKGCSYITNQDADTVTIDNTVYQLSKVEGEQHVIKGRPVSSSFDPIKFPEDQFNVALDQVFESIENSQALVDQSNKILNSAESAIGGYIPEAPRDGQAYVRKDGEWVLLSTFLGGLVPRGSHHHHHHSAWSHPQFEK
The experiment in a line: antigenic assessment of F1/F2 linker variants, FIG. 13.

B1: MPE8 antibody (Fab, V domains shown)
VH: EVQLVESGGGLVKPGGSLRLSCAASGFTFSSYSMNWVRQAPGKGLEWVSSISASSSYSDYADSAKGRFTISRDNAKTSLFLQMNSLRAEDTAIYFCARARATGYSSITPYFDIWGQGTLVTVSS
VL: QSVVTQPPSVSGAPGQRVTISCTGSSSNIGAGYDVHWYQQLPGTAPKLLIYDNNNRPSGVPDRFSASKSGTSASLAITGLQAEDEADYYCQSYDRSLSGVFGTGTKVTVL
notes: The text calls it an antibody; also called prefusion specific antibody MPE8
On to B1, for which the “fold increase in binding compared to v1B” value is greater than 10 fold.
